Data on 36 sequences can be found in the supplement of paper PMC12764529.

± gives the half width of the 95% confidence interval.

Series [1] is described as follows: folding stability dG unfold from chymotrypsin proteolysis; higher = more stable. An outline of the steps:
(§1)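 Designed mini-proteins with no cysteine and under 80 residues were kept only if AlphaFold2 dimer inter-PAE was above 15. In a PA-tagged cDNA display construct, they were digested with trypsin and chymotrypsin and then sequenced. K50 was inferred by Bayesian fitting of counts, and unfolding free energy was derived per protease or combined against a sequence-predicted unfolded-state K50 and a shared folded-state K50.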

Series [2] is described as follows: folding stability dG unfold (combined trypsin and chymotrypsin); higher = more stable. An outline of the steps: as §1
A short description of series [3]: folding stability dG unfold from trypsin proteolysis; higher = more stable. An outline of the steps: as §1

With “SAGGSAGGMKTFTIDELKKLAEELGAEIYYDKDTNTIYIRTPGKIFRITINDDGTVTIEELPPKSAGGSAGG [r6_155_TrROS_Hall]”, the “folding stability dG unfold” value is 16.7 ± 0.347 kJ/mol in series [1], 15.3 ± 1.05 kJ/mol in series [2] and 12.7 ± 0.795 kJ/mol in series [3].
In the same order, the values of “SAGGSAGGMKVTLTPVSGEKYEIEVESEEEAKEKVEKLAKKLGIPGEVKVTIEKGDKTYELTIISAGGSAGG [r6_532_JUSTAS]” are 10.5 ± 0.46 kJ/mol, 10 ± 1.76 kJ/mol and 12.5 ± 0.837 kJ/mol.
With “SAGGSAGGMKVTTEGNAAGTNTVTVSYPDGSSVTRTLAPDDVVEVPVGGEVVLTVTVTANPDLPSAGGSAGG [r6_583_JUSTAS]”, the “folding stability dG unfold” value was 0.0424 ± 0.255 kJ/mol in series [1], -0.226 ± 0.502 kJ/mol in series [2] and -0.305 ± 0.418 kJ/mol in series [3].
“SAGGSAGGMLLDEDGNLVVKIKLENGEEFEAKVTEIKDGKITVEVNGKKVEINAKDIELLPEDESAGGSAGG [r6_575_TrROS_Hall]”: the “folding stability dG unfold” value turned out to be 9.52 ± 0.209 kJ/mol in series [1], 9.68 ± 0.402 kJ/mol in series [2] and 9.31 ± 0.368 kJ/mol in series [3].
In the same order, the values of “SAGGSAGGMLLVRIKVRRPDGSEETIVLEFESEEELKAAIEELLPPGWEVVEIELVPLGEELPESAGGSAGG [r6_872_TrROS_Hall]” are 18.42 ± 0.176 kJ/mol, 18.8 ± 0.46 kJ/mol and 19.1 ± 0.711 kJ/mol.
On the same counts, the results for “SAGGSAGGMLPAEELADYLEKNPGIEIEDIEPPDPGYITVKIKFPRPDPNGEKHKVEVTIQFPVSAGGSAGG [r6_154_TrROS]” are 4.19 ± 0.314 kJ/mol, 5.87 ± 1.34 kJ/mol and 7.98 ± 1 kJ/mol.
On the same counts, the results for “SAGGSAGGMLSPEVLEDPEKVIEFLKKMIPGLKIVVPPDAPPEVVEAAAKLAEETGIPVEIVVGSAGGSAGG [r6_129_TrMRF]” are -2.26 ± 2.01 kJ/mol, 2.32 ± 0.753 kJ/mol and 4.42 ± 0.109 kJ/mol.
“SAGGSAGGMLVFVVKKIKPGMSDEQKKALEKLVKPGDVIELSPEEIERLAKLPWIQEIKVYPLPSAGGSAGG [r6_381_TrROS_Hall]”: the “folding stability dG unfold” value in series [1] stood at 1.51 ± 1.42 kJ/mol; in series [2] it was 2.29 ± 0.837 kJ/mol; in series [3] it was 2.68 ± 0.502 kJ/mol.
As for “SAGGSAGGMPEYRVLDIEIETRPDMTPEEAVEEIRKALEPLGAIRVEAEPLPDGRIRVRVVLPESAGGSAGG [r6_881_TrMRF]”, the “folding stability dG unfold” value in series [1] amounted to 10.2 ± 1.05 kJ/mol; in series [2], 13.7 ± 1.34 kJ/mol; in series [3] it was 14.7 ± 1.17 kJ/mol.
In the same order, the values of “SAGGSAGGMPVSVEIELTVPTSPDETPEEALERIREELAPLGVEEVTATPLPDGTVRFRITVPRSAGGSAGG [r6_882_JUSTAS]” are 2.11 ± 0.837 kJ/mol, 4.02 ± 0.544 kJ/mol and 6.01 ± 0.201 kJ/mol.
On the same counts, the results for “SAGGSAGGMRLEIVVEMSEEEARELAEALRRELEERGYRVRVEVRRLPDGRLVVRVEIEPAPEPSAGGSAGG [r6_597_TrROS_Hall]” are 18.8 ± 0.389 kJ/mol, 19.4 ± 0.711 kJ/mol and 18.7 ± 0.795 kJ/mol.
Consider “SAGGSAGGMRLVVEDFDEEEMEEVERRVREFAEEHDVEVDIYRRRRPDGRVVLVVEIRPKEDLPSAGGSAGG [r6_906_TrMRF]”, for which the “folding stability dG unfold” value in series [1] is 12.6 ± 0.142 kJ/mol; in series [2], 12.3 ± 0.218 kJ/mol; in series [3] it was 12 ± 0.243 kJ/mol.
On the same counts, the results for “SAGGSAGGMTFVDLGEDKPVVIEVPPRPETGLYPVVIHPPEKPVFVEVESPEEAIEAAEKLVEGSAGGSAGG [r6_715_TrMRF]” are 3.3 ± 0.188 kJ/mol, 4.7 ± 0.188 kJ/mol and 5.94 ± 0.213 kJ/mol.
In the same order, the values of “SAGGSAGGMTITLRIKITNPDGEEKEIEVELELPEELKGKTLEELAAELAKALLPPGAKVEVEPSAGGSAGG [r6_821_TrROS_Hall]” are 13.2 ± 0.31 kJ/mol, 11.4 ± 0.586 kJ/mol and 7.25 ± 0.201 kJ/mol.
On the same counts, the results for “SAGGSAGGMTITLTLPDGTVITITVSRPGSPTTVVSVKAERPARGGTDIPEEVAKELAEKILKESAGGSAGG [r6_235_JUSTAS]” are 12.4 ± 0.46 kJ/mol, 10.7 ± 0.318 kJ/mol and 6.34 ± 0.155 kJ/mol.
“SAGGSAGGMTKTEVTVTVEKVPDGTYVVKTTKTTTTTNPDGTLTSSTTTTTKTVTPEELAAVLASAGGSAGG [r6_974_JUSTAS]”: the “folding stability dG unfold” value was 12 ± 0.184 kJ/mol in series [1], 13.2 ± 0.46 kJ/mol in series [2] and 15.5 ± 0.628 kJ/mol in series [3].
In the same order, the values of “SAGGSAGGMTLLIRDPETNELVEVTVEEKDGKLTLTVRNKKTGETTEIEIPLDEEPIEIVLLEPSAGGSAGG [r6_465_TrROS_Hall]” are 10.92 ± 0.0879 kJ/mol, 10.2 ± 0.502 kJ/mol and 8.75 ± 0.502 kJ/mol.
On the same counts, the results for “SAGGSAGGMTLVLEGMSEEELEELARKLRELAEELGLKVKITVERREDGRVRLTVEIELPEELPSAGGSAGG [r6_906_TrROS_Hall]” are 15.5 ± 0.962 kJ/mol, 17.4 ± 1.05 kJ/mol and 18.2 ± 1.09 kJ/mol.
In the same order, the values of “SAGGSAGGMTVDPENPVVYYPGSDGKAQTYPLSPDSSLKLPDGKVVTVTPVPEGSVSVSVSPVESAGGSAGG [r6_296_JUSTAS]” are 5.227 ± 0.046 kJ/mol, 4.29 ± 0.151 kJ/mol and 2.39 ± 0.126 kJ/mol.
As for “SAGGSAGGMTVPITLPLDEYSPEEVEAKIKAIREEIEKKNPDKKISINVTLVPQPPEPTPENLRSAGGSAGG [r6_729_JUSTAS]”, the “folding stability dG unfold” value in series [1] was 2.16 ± 0.0962 kJ/mol; in series [2] it was 1.25 ± 0.293 kJ/mol; in series [3], -3.12 ± 0.586 kJ/mol.
On the same counts, the results for “SAGGSAGGMTVTFTLPATAPENALENVTATVTYNGKTYLVKITATPVPDGPFVVVTAELVEYDPSAGGSAGG [r6_415_TrMRF]” are 15.4 ± 0.586 kJ/mol, 14 ± 0.711 kJ/mol and 12.6 ± 0.347 kJ/mol.
“SAGGSAGGMVERPITLRVRVKTPEEVKKLVEELLKPTDAKADVVEEELEDGTVLVTLTIYVPEESAGGSAGG [r6_719_TrMRF]”: the entries for the “folding stability dG unfold” value in series [1], in series [2] and in series [3] were 6.6 ± 0.159 kJ/mol, 6.79 ± 0.176 kJ/mol and 6.99 ± 0.0795 kJ/mol, respectively.
On the same counts, the results for “SAGGSAGGMVIEFPKEKVEEVKKELLDAGKPDWVIVTDPNDPDIIKIMPKSLAEEKGWKYTPLLSAGGSAGG [r6_710_JUSTAS]” are 8.61 ± 0.18 kJ/mol, 8.74 ± 0.669 kJ/mol and 9.74 ± 0.305 kJ/mol.
On the same counts, the results for “SAGGSAGGMVIHEIEVESPDPEKAEEEAKARAEEIRKALEEEEGGIPGEVKFVPTPEEDPLLLLSAGGSAGG [r6_23_JUSTAS]” are 3.49 ± 0.314 kJ/mol, 5.99 ± 0.544 kJ/mol and 8.31 ± 0.544 kJ/mol.
In the same order, the values of “SAGGSAGGMVIKLPLPNDLYAEIPVYSNSDGIVTARIVLYDPSTEEKVEKPFELPFEELLDLLSSAGGSAGG [r6_858_TrMRF]” are 3.76 ± 0.226 kJ/mol, 2.98 ± 0.339 kJ/mol and 1.37 ± 0.113 kJ/mol.
In the case of “SAGGSAGGMVKVLVNPDGGATFIFNKDGSTSTIPVPYTTLEDVKAAVEALAKEYGIEVEEIVPASAGGSAGG [r6_254_JUSTAS]”, the figures for the “folding stability dG unfold” value in series [1], in series [2] and in series [3] were 5.76 ± 0.502 kJ/mol, 4.11 ± 0.628 kJ/mol and 1.65 ± 0.356 kJ/mol, respectively.
In the same order, the values of “SAGGSAGGMVKVYPIDPNTPPEAVVARLEKEFPDRPIKSVSVSTVGDVPVVTITFPDGLKVVVSSAGGSAGG [r6_492_JUSTAS]” are 6 ± 0.126 kJ/mol, 5.15 ± 0.301 kJ/mol and 4.08 ± 0.121 kJ/mol.
In the same order, the values of “SAGGSAGGMVTITEVSYDPKIGKTFTLVTVKDPEGKETLVEVPLEEIEKLIEEVPEGRPVEIAPSAGGSAGG [r6_113_JUSTAS]” are -4.11 ± 2.68 kJ/mol, -0.832 ± 0.795 kJ/mol and -0.26 ± 0.226 kJ/mol.
With “SAGGSAGGMVTSTDPATGIVYSLDPTTGVWSAQTVTLPPITIPVSEVPELLKALPPGTPILVLASAGGSAGG [r6_104_JUSTAS]”, the results for the “folding stability dG unfold” value in series [1], in series [2] and in series [3] were 4.84 ± 0.268 kJ/mol, 4.79 ± 0.155 kJ/mol and 4.22 ± 0.0669 kJ/mol, respectively.
Take “SAGGSAGGMVVGILTITDPATGSSETLVIPMPSEEEAVERAKELAEELEAKKGKIVKVEIRPRPSAGGSAGG [r6_787_JUSTAS]”: the “folding stability dG unfold” value is 6.3 ± 0.368 kJ/mol in series [1], 5.53 ± 0.795 kJ/mol in series [2] and 5.81 ± 0.268 kJ/mol in series [3].
On the same counts, the results for “SAGGSAGGMVYKIRDKETGKVYEVTIDEETNEITVYDVKTGKPVKTVNMTIEELKEAGYEVEPVSAGGSAGG [r6_831_TrROS_Hall]” are 13.7 ± 0.142 kJ/mol, 14.2 ± 0.837 kJ/mol and 15.1 ± 0.669 kJ/mol.
In the same order, the values of “SAGGSAGGMYTVIEEEFTFPPSNPDVVIEVEYPDLPDSYTITQSTFPEGDTYHVRVTITVPPNLSAGGSAGG [r6_482_JUSTAS]” are 3.19 ± 0.418 kJ/mol, 2.53 ± 0.318 kJ/mol and 1.31 ± 0.372 kJ/mol.
As to “SAGGSAGGMYVKIKVTMTADELKKLFPNIKKGEKVTVELVIKVEKAPPVKVEKKKEKKVEVKLKSAGGSAGG [r6_211_TrROS_Hall]”, the “folding stability dG unfold” value is 9.26 ± 0.172 kJ/mol in series [1], 7.3 ± 0.586 kJ/mol in series [2] and 2.77 ± 0.259 kJ/mol in series [3].
Take “SAGGSAGGNTIMIPLPPNMPLDEVAKELMDAFPDYPIKDVEYERYGDRPMVTVRFPDGWKITIWSAGGSAGG [r6_492_TrROS]”: the “folding stability dG unfold” value is 3.42 ± 0.92 kJ/mol in series [1], 3.51 ± 0.502 kJ/mol in series [2] and 2.27 ± 0.142 kJ/mol in series [3].
On the same counts, the results for “SAGGSAGGNVILVETGPDGRARVLVFDPETGKVTEYEVPADDLDAIEAIAADKVDLVIVRPVGPSAGGSAGG [r6_639_TrMRF]” are 9.31 ± 0.117 kJ/mol, 8.64 ± 0.46 kJ/mol and 7.31 ± 0.247 kJ/mol.
On the same counts, the results for “SAGGSAGGNWKVEIWPNGEQQEYTIDEIKKQLKNDIPPNYMIRVKGSGKWIPVRELLKEAGIPLSAGGSAGG [r6_937_TrROS]” are 3.32 ± 0.46 kJ/mol, 2.89 ± 0.318 kJ/mol and 1.6 ± 0.322 kJ/mol.
